# Earlier results, collected in article PMC6943629, “Binding of Gold(III) Porphyrin by the Pro-metastatic Regulatory Protein Human Galectin-3” (Molecules, 2019).
# Legend:
# [1] = target: asialofetuin (Bos taurus) (UniProt P12763)
# [2] = target: MUC18 (Homo sapiens) (UniProt P43121); assay: bio-layer interferometry
# MUC18 (Homo sapiens), sequence (P43121 24-646): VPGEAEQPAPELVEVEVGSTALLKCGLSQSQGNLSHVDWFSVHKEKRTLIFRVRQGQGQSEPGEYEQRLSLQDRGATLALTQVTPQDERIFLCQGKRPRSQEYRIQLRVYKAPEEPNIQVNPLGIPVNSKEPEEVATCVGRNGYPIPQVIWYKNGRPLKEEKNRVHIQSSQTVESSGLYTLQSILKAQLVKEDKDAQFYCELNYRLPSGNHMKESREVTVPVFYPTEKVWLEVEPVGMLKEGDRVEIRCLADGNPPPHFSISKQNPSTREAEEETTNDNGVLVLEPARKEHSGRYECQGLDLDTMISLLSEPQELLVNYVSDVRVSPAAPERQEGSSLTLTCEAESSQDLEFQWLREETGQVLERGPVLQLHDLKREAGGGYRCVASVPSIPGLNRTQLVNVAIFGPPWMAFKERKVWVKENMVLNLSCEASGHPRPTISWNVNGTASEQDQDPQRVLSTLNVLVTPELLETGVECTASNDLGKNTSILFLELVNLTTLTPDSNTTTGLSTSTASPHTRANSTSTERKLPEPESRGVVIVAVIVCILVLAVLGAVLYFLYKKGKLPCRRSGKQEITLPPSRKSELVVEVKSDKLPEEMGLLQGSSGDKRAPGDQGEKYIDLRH
# galectin-3, sequence (P17931 2-250): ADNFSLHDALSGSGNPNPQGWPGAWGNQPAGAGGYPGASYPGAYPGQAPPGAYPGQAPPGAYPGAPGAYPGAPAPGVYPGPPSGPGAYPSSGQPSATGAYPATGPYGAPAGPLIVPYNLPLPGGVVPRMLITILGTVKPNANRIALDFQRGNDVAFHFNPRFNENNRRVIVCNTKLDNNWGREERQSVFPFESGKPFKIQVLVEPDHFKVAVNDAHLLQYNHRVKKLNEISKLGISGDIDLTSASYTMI
# asialofetuin (Bos taurus), sequence (P12763 19-359): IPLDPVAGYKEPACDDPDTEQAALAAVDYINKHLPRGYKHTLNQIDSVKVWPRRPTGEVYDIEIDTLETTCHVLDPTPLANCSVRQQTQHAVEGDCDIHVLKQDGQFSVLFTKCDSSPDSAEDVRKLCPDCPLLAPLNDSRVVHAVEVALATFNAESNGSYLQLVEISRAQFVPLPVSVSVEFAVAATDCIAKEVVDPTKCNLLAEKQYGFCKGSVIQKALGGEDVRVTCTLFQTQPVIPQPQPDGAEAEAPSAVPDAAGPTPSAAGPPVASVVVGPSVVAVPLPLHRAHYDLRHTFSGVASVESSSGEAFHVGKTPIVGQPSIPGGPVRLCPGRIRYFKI
substance,measurement,setting,value
galectin-3 (from UniProt P17931),Kd,[1],720 nM
same,Kd,[2],430 nM
